The nature of this data set: protease stability score; higher = more stable; yeast display proteolysis, trypsin and chymotrypsin.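 Also: relative to predicted unfolded state with 0 unfolded-like and 1 meaning tenfold more protease.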
“DRREEMEEIADELRRELIKTGDEHSTHRLADPHAKLHIGDKEYHGMEFMIRFFKILGVDHLRLQDIRVIDGQVHIHITSRVGDKRVHVEIISDKYNGRWRLREVIITID” had a protease stability score of 0.711.

Regarding “DRRQEELRRMAEIWIHNELTGNEDEFRKLADPNVRFHLHVNGRVLSSHGMETLVKLFRELLEEWRIKEIHIHDMHIQGDKVHLEGRRRGTIGDKEDIYEVEIHVVIVNGKMKEITVIIK”, the protease stability score stood at 1.51.

Sequence “DSDEEATKDFLEILIKLEMTGNEEEMRKMLDPNVRLIIDGVNLHGREALNVYLERFKNIQVEEIRIRHIEFQGEKVKIDYEWTVRINGRHHHQRTTIILIKYDGRWIIHMIHWH” returned a protease stability score of 2.55.

“DSDHHRAYEYAEFFIEWHETGNEDVLTELLDPHVRLIVDGQHYHGRDLIVRFLVQWRIHRFHIHDVKSIGEYIRVDTHVDMEFDGKRIITQVELVIIKINGRWRYKHISIP” returned a protease stability score of 1.22.

As for “DSDQSKREMDKFLEMVSTGDPDEVNRLLDKDAHAHVGDQTYHGREEISHMWKELREKIDHLEVHDYKVNGNKLEVDMHATINGQNVVFTVVAVLRNGHFESVEVQYRSEEEEEKVKR”, the protease stability score stood at 0.776.

“DSEEEDARRALQEFLEHLATGNWEVLTKMMDPNTRLDVDGRDIHGWDEVKHHLKEMRVTIDHLHIERYIVQGEKVDIRGRVHILKEFDGKVLRHDRHVRIIFEKVDGRWIIHKIEHR” showed a protease stability score of 1.99.

As to “DSEEKDQRKASELTMRLLKTGNEDLMSHFFDPDTKVTIGDKEYHGREVLSHLLWEEKERIKGMRFEIKDLHVRYIGDKIRVESHVVLEINGVTLDTELIFHAEKVDGRWLSRSFEVRIT”, the protease stability score is -0.023.

“DSEEKWDREFVKDFVHNEKTGDEERLKELMDPHAILLIDINGREIRHHGREAMTEEVDRFLKHAGVDHMDIHDVKIQGDKVRVDIRIEIGDKRQKSHIIIEKINGQWRVTQIHIHVE” displayed a protease stability score of 0.989.

Consider “DSEHEEAKTFVKELDKSIETGDEEKLKELLDPHTLIIVGDKFRIGWEWMANKISQIRIHMETRIRDVEHQGDKMIVHTDVRIDINVDGKKIHEQRDIHLIIRKVNGQWILKEIEIR”, for which the protease stability score was found to be 1.36.

With “DSHEETNKFFFELTTHALETGDFDFLKKLADPHVRLNIDGRDTIGMDFLLRLWRELGFKHQHLKDMKIYGNWTYLDMHLHFNGREHDIHLNFKIFNGQMESIDVHIR”, the protease stability score turned out to be 1.32.

In turn, “DSHRELLERFARLMLHLWLTGDEDELHKYMDPHVRYHQGEFHIHGREEVTRWASELHKKLGINHEDQERVNIYDGKNHVDTRLDINGRHLRVELRIDVWNGRIREVQVHHR” gave a protease stability score of 1.41.

The sequence “DSHYHLFIYNMELLSTLLKTGDEHRNTEMFDPHVRIVVGEKEIHGREDVEKYLREIRIEEMRFHLRRLDVQGEKVTVEGELRIRFWIGDKEHEHNEDARIHLLKINGRWRLKEIESK” had a protease stability score of 2.43.

For “DSLEDIFKLAVDDLEFLYETGDEEMTSQMADPNVRVIFNGRDFWGWHYLLKIFSELIKKLGIDHIRLEIDHVHLQGDKVDIHGTLRNHIGDFIFVHHTTHFLVKIDGRWFIRSVKIR”, the protease stability score is 2.15.

Sequence “DSLEEMTRKWFEKWVRDLKTGDEQSMTELADPHVRFLQGDKEYHGRELFTELESEKRKRFDHLELRLHSMEVQGDKLHIDSRMILKIGDFVLKLNVYLHVLKIDGRWLLEEIRIK” displayed a protease stability score of 0.704.

Consider “DSLEKHTEDSLRFFLHILRTGDEEELSDLLDPRTRYEFNGKEFHGREQVVEVLIRLAEHIRIEELHVTHVEVYGDKVNSETLLIVDVDGQKRILHTRVLATKVNGKWLFQRIRIV”, for which the protease stability score is 2.17.

The sequence “DSLHEKVEIMAHLLVEIIRTGNEEDWRRYVDPNVRIRIGDKDLHGREEAFRVVREIRIIVHDIKIRSLDVQGDKVESDVEVDVEFRIGDKVNRIHTRFRLIWTKVDGRWINESMSIE” returned a protease stability score of 2.61.

As for “DSSENFMRHMMEEVWNALVTGDEKLFQRLADPDVRLHFNGVHTHGRENVLTFLRSLDEHLGVKHRSIHDFTIVGDYSHIDTTMEVGDKHWRIHLFLVIIDGRVHHIEIRIE”, the protease stability score worked out at 2.23.

In the case of “DSVEELAKRSVELLLRLLKTGDEEEISRLADPDTRLVIGEFEFHGMEKVEHSWRKMGFTIHEWRIHDVEVQGDKLIVHVHQNIEFNGVHEEFRSIIIARKINGRWRLKSLHWK”, the protease stability score is 1.67.

Consider “DTDAVRRALKFIDAMQDGDPDKARELMDPNARVNIGDKEYHGMTSFVKDLKRLRDEIRVQYNIRDYNAQGEKIHVTVDVVFEHNGRPVDERFNVTIDIQGDKIKQVTAHRTK”, for which the protease stability score worked out at 1.5.

“DTDKKHIQNVLRLLSTLEHTGDWEALKELADPNVRVVVNGQEIHGRDMFNKHFEELRINDSRMILRDFEVQGDKIHVEGEVEFDGIIDGREKRFVRHVRIINVKIDGRWVIREIQVR” showed a protease stability score of 1.62.

Sequence “DTDQTLFEDYAKMYMKDLLTGDFESIEKYADPRVQVHIGDKEIHGREIFVKYLWEHNEQVDHRQFHFKDVDHFDGKIHVHMEMHIDVNGKLINEKLHVIIWKFNGRWIMKSVHHR” came in with a protease stability score of 0.78.

On to “DTDTHTVKEFIRALVESSRTGDEDLLRDFADPRMRIDIDGRIFHGRENALRWLSELRIEEVRIDHVTIVDGRLHVDVTYRGDINGQHTETRVILIILKVNGRWRMHYIEVR”, for which the protease stability score stood at 1.55.

In turn, “DTEDHLSHRVLEYHQEVEKTGDWHELFNNIDPHARMSVGDKRYHGMESMSKWLSRIKNAKIDEEHIEIQGNKIILHGTINVDGVRIESIILSLKVDGRWLRKEVRFH” gave a protease stability score of 0.19.

“DTEDKLSEEALKDLLEKVKTGDPQVMEELADPEVKVDIGDKNLHGREEYTRWVEKLWKRVPNLKLEIDHVEFQGDYVLIEGRIIYNGRKHKIKIHSLKIDGRWLIETVRIR”: the protease stability score came to 1.39.

As for “DTEEEILKQYLELLRRQHATGDEDSIKHLVDPNVRNDVNGVDIHGRDRMREWIERHRHNLGIDHIEIRITDLHIIDGRIHLDVRVFYRVDGRTIHMEIYVVLVKVDGRWSVKSRHLH”, the protease stability score turned out to be 0.911.

As for “DTEEKELQKSLKELVTAVQTGDFKLLKELFDPHVRIDIGDKNVIGREEFSRFQKEEMEKWGVSRFTFDMEIHRYEIQGNKAYVDALNREEINGQEIHFNVDLFIHKINGKWLITEIRNK”, the protease stability score was 0.494.

With “DTEEKLARDIVRIVSELIFTGNEQDLKRLHDPRVRLEVLFENHYLEFHGWEDYLEWLEEWRNHMRMKEIHVHTLQVYGNKARDEVHTVVHIGDKRIETRMHFIVVVINGRIKYISVHIE”, the protease stability score was 1.9.

Take “DTEERLLHEMLRYLLEWFITGDEELFARLADPNTRTNVNGRHFHGREEMARLLEKWWRDFGVKHVHIEHTRVQGDYLHIDTRLHIGDKDLHVHFKLLVIDGRIRSLEIIIR”: the protease stability score turned out to be 0.689.

In turn, “DTEKYLYDFALRLHIHAHETGNFDQLIKNLDPHYRIDINGQIFHGREWVEREYKRAGIDKFELQHFEVKHEHVQGDFLIMDGKLEGNFNGVRINTRVEIYHEKFDGQWKIREVHHR” yielded a protease stability score of 0.185.

As to “DTEQKHVLHLLDEVLHNILTGDWDRIDELMDPNVRVIIGEWDHHGRSYFRELHHLLMLKLGVDHRHIKIQDKDAQGEYAVAHTHLELRIGDKRETYQTRLIVSVVNGKIEEIRIHIG”, the protease stability score turned out to be 0.877.

“DTIERFVRHSFNLFVKQLETGDEHTLEKMADPHVRLEYGDKEYHGREEFKRQMHEIRFKRLELKRIEIQGEWAIMHGEDDGHFNGVDMKLESTEIAVKVNGRWYLKSFILK” yielded a protease stability score of 1.41.

Sequence “DTSFTILEEVIKLFIEASETGDERVIQHLFDPNVRFRVDGKDFHGMDWLLEHFSHLRLHDIQITHVHIYNGRVEVTGHVRGNFDGQEKVHNTHILLRKIDGKWRIEHISMK” had a protease stability score of 1.41.

In turn, “DTTEKHQKDMARAQIHSLETGDFKELMELLDPNVRFEFEVGDKRIERHGRELMVHFILKEYEEIRIRIDSWRVVNGVVKIELRLHVGDKESRIEIYLLIINGQAKSVHFDVR” showed a protease stability score of 1.09.

“DTVTEMDRHIFEHLLHLWKTGDWKRMTELFDPHARSVFNGRELHGRKSMQEAIEIIVRRADHIELHIRSLDVVDGQIDLDGELILIVGDKKIVHETHIHIHVYNGQVTELSFQIV” showed a protease stability score of 0.585.

With “DVEEEYRHVMEEVHKHAMKTGDEQDILHLMDPNARFEVDGKIYIGREWLRRFVDILGVSRIHLHDLKIKDYRIIGNKIEVDGNIDGIVGNKRHEIDSHVISEKIDGRWIIKREKHR”, the protease stability score amounted to 0.324.

“DVEQEISKTLVHLWVFALLTGDEHLIRKLADPHVRLDIDGVTIVGMDLVAKRITELRIERFTIEDVKFEIQGDKLISIMDTKVDGRIGDKRIETRVIILLIFEKIDGRWQLSTSSEEKR” gave a protease stability score of 1.16.

Consider “DYHEEIMRKVHEFFLAMVTTGDEEMIEKLFDPHVRIDINGRDHHGRDVAVKIWEELWREIRFKHVHLHDMKSFNGVLHLHVREKVDVNGRDLIIETHFVIRKFDGQWHLHSLKIN”, for which the protease stability score came out at 1.38.

The sequence “EDDERELKLMLELLLHSQHTGDFKEAERLADPNARFEFNGREFHGREQFHSFIWKLGVDHSEVKRVRLQGEFLTLHIKHNVNGKEIDMIWYNVKVNGKWLIHHLEVR” showed a protease stability score of 1.21.

“EDEEQHTEELAHIFTEDYFTGDESSLERYLDPHVRLRIEYGDWEFSVHGRERAVDKIHWTMKQMGVKHVYLRHIRVQGDKVELNLELRVGDKVREQRIEIKVVNGRIKLVNIVIH”: the protease stability score is 2.15.

For “EDEERETEEAIRLFIKNEITGDWKRLLHYLDPNVRVRIGDKEIHGMERWKDEFKQEIDRVKGLRYELDDERRHLVDGKIEIILDFTIHVGEKRHRFQLVLILVKVNGRWIMHSIHVNYL”, the protease stability score amounted to 1.54.

“EDEKEFIERFARILLHARFTGDWKTLLELMDPNARITIEIGDKILEFHGMEQWIRENDKTEKKIKNITIHIEDMRIVNGVLEVDIHVHIGDKKYDFRIIVVVINGKVRQLEIKVE” gave a protease stability score of 2.08.

With “EEAEQESKNFSEVVHRSLETGDEDNLMNNADPHVRSRIHVGDKRITSHGREVMELILERFKHARVVPTDIEVINGVAIIHMTMEYGDKELRIHLIFFKIDGKWILTHIIIRVD”, the protease stability score was 0.056.

“EEDDEILEKAIRLHEHMLRTGDPREFWELADPHYKLNIGDKHIHGRETLLRHTLHKIEEYGFKHSRFVPKDWELQGDKIHLRGELILHFNGREHRYDYHIEAIKVNGQWVLHRIDIQ” gave a protease stability score of 1.23.

In turn, “EEDDKFSELAFNMLVESFKTGDEQHWRELADPRVKYQIDGRDLIGWTAFRRFLNEFGIDHMHIKLHDHRDYNGQVELDETLEIRYGDKTEHIKVTTIVHKINGQWIVKSFSVH” returned a protease stability score of 0.682.

“EEDDRDLEDLLTKLDSAIQTGNWEILHHLIDPHARSHYNGRDFHGWRDLEFLLRIIVEEIRLDTVDMKHHEFYGDKMRLETTLTGEVNGQKTEFTTVLIYLKIDGKWVIHNFEVR”: the protease stability score came to 0.729.

“EEDEEHIRKVIETFREMSETGDEDWSERMADPNARLIVGNKEFHGRERFNEWNRELTERIDHFEVRIRDFEIQGDKLILHVRITIIINGKDIETESHIIMKKVDGRWFMHSLHHK” showed a protease stability score of 0.752.

On to “EEDEEITKLYLEIILHIWLTGNEEELLRMFDPNARVDINGVINIGREDLLKRFHEHWRKYGAKHIRVRDIKFHIFNGVIYINLHLELIVGDKTFHVHLHMRSRKVDGRWHTHEFEERIN”, for which the protease stability score stood at 1.69.
